Laboratory results: the RNAGym collection of RNA variant scans (doi:10.7554/elife.80360)

B1: CPEB3 Ribozyme (parent)
chain: GGGGGCCACAGCAGAAGCGUUCACGUCGCGGCCCCUGUCAGAUUCUGGUGAAUCUGCGAAUUCUGCUGU

Variants of: B1
Test: self-cleavage, relative activity (ratio to wild type); higher = more cleavage; co-transcriptional

Variant	self-cleavage
U46C U64C	0.936
U46C U64A	0.877
U46C U64G	0.852
G48U G68C	1.05
G48U G68A	1.04
G48U G68U	1.04
U46G U69C	1.07
G48A C66U	0.99
G48A C66A	0.877
G48A C66G	0.942
G47U U55A	0.961
G47U U55G	0.937
G47C U61G	0.937
G47C U61A	0.97
U46G G47U	0.976
U46G G47C	1.02
U46G G47A	1.02
G47C U64G	0.938
G47C U64A	0.979
G47A G50U	1.01
G48C U55A	1
G47C G50C	1.02
G47C G50U	0.998
G48A U61G	0.919

Variant	self-cleavage
G48A U61A	0.957
G48A U61C	0.852
U46G U49C	1.04
U46G U49A	0.972
G48A G68C	0.98
G47C A52G	1
G47C A52C	0.946
G47C A52U	1.05
G47U A59C	0.832
G47U A59G	1
G47U G56A	0.966
G47U G56C	0.885
G47U	1
G47A	1
G47C	1
G48U A60G	0.979
G48U A60C	0.362
G47A U67C	0.976
G47A U67G	1.06
U46G A59G	0.965
U46G A59U	0.842
U46G C66U	0.986
U46G C66A	0.786
U46G C66G	0.956

Variant	self-cleavage
G48A A51U	0.989
G48A A51C	1
U46G U53A	1.01
U46G U53C	0.978
U46G U53G	0.918
G48C G68A	0.971
U46C G48A	1.03
U46C G48C	1.02
U46C G48U	1.02
U46G U64G	0.885
U46G U64A	0.916
U46G U64C	0.927
G48C C63A	0.931
G48C C63U	0.981
U46C G56U	0.837
G48U G50U	0.99
G48U G50C	1.01
G48U G50A	1.03
G47U U62G	0.903
G47U U62C	0.912
U46C G58A	0.979
G48U C63U	1.03
G48U C63A	0.956
G48U C63G	0.878

Variant	self-cleavage
G48C U69C	1.06
G47C G68U	0.994
G47C G68C	1.02
G47C G68A	1
U46C U49A	0.996
U46C U49C	0.913
G48C A59G	0.989
G48C A59C	0.797
U46C G65A	0.893
U46C G65C	0.615
G48A U62C	0.952
G48A U62G	0.868
G48A A59G	1.05
G48A A59U	0.817
G48A A59C	0.83
G48U C66A	0.923
G48U C66U	0.978
G48U C54G	1.03
G48A C63A	0.932
G48A C63G	0.898
G48A C63U	0.959
G47A C57A	0.347
G47A C57U	0.321
G48C U49G	1.06

Variant	self-cleavage
G48C U49A	0.976
G48C U49C	0.993
G47U G58U	0.994
G47U G58A	0.946
G47U G58C	0.963
G47C U49G	1
G47C U49C	0.981
U46C U53G	0.872
G47C C66A	0.897
G47C C66G	0.91
G47C C63U	1.01
G47U A52U	0.973
G47U U69C	1.06
G47U U69G	1.05
G47U U69A	1.02
U46C G50C	1.04
U46C G50A	0.974
G48C U64C	0.938
G47A C54G	0.979
G47A C54A	0.961
U46G A60G	0.952
U46G A60U	0.413
U46G A60C	0.413
G48U G65C	0.798

Variant	self-cleavage
G48U G65U	0.909
G47U G48C	1.02
G48C G50C	0.944
G48C G50U	1.01
G48C G50A	1.01
G48C U61G	0.907
G48C U61C	0.866
G47U C54U	1.05
G47U C54A	0.987
G48C A52U	0.971
G48C A52G	1.04
G48C A52C	0.994
U46G G56U	0.959
U46G G56C	0.65
G47U G50C	1
G47U G50A	1.01
G48U U55G	0.968
G48U U55C	0.977
U46C U69A	0.997
U46C U69C	1.06
U46C U69G	1.05
G48C U53C	0.96
G48C U53G	0.913
U46G U55A	0.899

Variant	self-cleavage
U46G U55G	0.83
U46G U55C	0.936
G48U A59U	0.881
G48U A59C	0.739
G47A U62C	0.933
G47A U62A	0.976
G48U U53G	0.94
G48U U53C	1.04
G47U C66G	0.914
G47U C66A	0.933
G47U C66U	1.02
U46G U61G	0.878
U46G U61A	0.958
U46G U61C	0.941
U46G G58U	0.955
G47C U67C	0.993
G47C U67G	1.06
G47A U61G	0.968
G47A U61C	0.887
G47C C54G	0.959
G47C C54U	0.987
G47C C57A	0.32
G47C C57U	0.344
